Laboratory results reported in patent US20180179283A1.

How the values were obtained:
[1] = biological target: HLA-A2/MAGE-A4 230-239 peptide complex on cells (human); test: FACS, T2 cells loaded with MAGE-A4 [..], anti-human PE
[2] = biological target: HLA-A2/WT1-S13 peptide on T2 cells (human); test: FACS, T2 cells loaded with WT1-S13 [..], anti-human PE
[3] = biological target: HLA-A2/WT1 126-134 peptide complex on cells (human); test: FACS, T2 cells loaded with WT1 peptide 1x10e-4M, anti-human PE
[4] = biological target: HLA-A2/WT1 126-134 peptide complex on cells (human); test: FACS, T2 cells loaded with 10^-4M WT1 peptide
[5] = biological target: HLA-A2/WT1-S11 peptide on T2 cells (human); test: FACS, T2 cells loaded with WT1-S11 [..] (heteroclitic pep.), anti-human PE
[6] = biological target: HLA-A2 positive, antigen negative cells; test: FACS, IM-9 cells (multiple myeloma, WT1 mRNA -)
[7] = biological target: HLA-A2/WT1-S10 peptide on T2 cells (human); test: FACS, T2 cells loaded with WT1-S10 [..], anti-human PE
[8] = biological target: HLA-A2 positive, antigen negative cells; test: FACS, A498 cells (printed: non-small cell lung adenocarcinoma, WT1 mRNA -)
[9] = biological target: HLA-A2/WT1-S22 peptide on T2 cells (human); test: FACS, T2 cells loaded with WT1-S22 [..], anti-human PE
[10] = biological target: HLA-A2/WT1 126-134 peptide complex on cells (human); test: FACS, SET-2 cells (essential thrombocythemia, WT1 mRNA +)
[11] = biological target: HLA-A2/PAP 112-120 peptide complex on cells (human); test: FACS, T2 cells loaded with PAP112, anti-human PE
[12] = biological target: HLA-A2/WT1-S16 peptide on T2 cells (human); test: FACS, T2 cells loaded with WT1-S16 [..], anti-human PE
[13] = biological target: HLA-A2 positive, antigen negative cells; test: FACS, U266 cells (multiple myeloma, WT1 mRNA -)
[14] = biological target: HLA-A2 positive, antigen negative cells; test: FACS, SKMEL-5 cells (melanoma, WT1 mRNA -)
Unloaded T2 (human) = test: FACS, unloaded T2 cells, anti-human PE
[15] = biological target: HLA-A2/Tyrosinase 369-377 peptide complex on cells (human); test: FACS, T2 cells loaded with TyrD [..], anti-human PE
[16] = biological target: HLA-A2/WT1 126-134 peptide complex on cells (human); test: FACS, BV173 cells (B cell precursor leukemia, WT1 mRNA +)
[17] = biological target: HLA-A2 positive, antigen negative cells; test: FACS, 501A cells (melanoma, WT1 mRNA -)
[18] = biological target: HLA-A2/WT1 126-134 peptide complex on cells (human); test: FACS, T2 cells loaded with WT1 1x10e-4M in DMSO, anti-human PE
[19] = biological target: HLA-A2/WT1-S6 peptide on T2 cells (human); test: FACS, T2 cells loaded with WT1-S6 [..], anti-human PE
[20] = biological target: HLA-A2/WT1-S7 peptide on T2 cells (human); test: FACS, T2 cells loaded with WT1-S7 [..], anti-human PE
[21] = biological target: HLA-A2/WT1 126-134 peptide complex on cells (human); test: FACS, T2 cells loaded with WT1 peptide 1x10e-5M, anti-human PE
[22] = biological target: HLA-A2 positive, antigen negative cells; test: FACS, JVM-2 cells (lymphoblast, WT1 mRNA -)
[23] = biological target: HLA-A2/MAGE-A9 223-231 peptide complex on cells (human); test: FACS, T2 cells loaded with MAGE-A9 [..], anti-human PE

## ESK1 TCR-like antibody
[1]
  MFI: 1.1
[2]
  MFI: 1.1
[3]
  MFI: 17.9
[4]
  MFI: 18
[5]
  MFI: 1.1
[6]
  MFI: 1.2
[7]
  MFI: 1.4
[8]
  MFI: 5.2
[9]
  MFI: 1.1
[10]
  MFI: 26.3
[11]
  MFI: 1.1
[12]
  MFI: 1.1
[13]
  MFI: 1.9
[14]
  MFI: 4.3
Unloaded T2 (human)
  MFI: 1
[15]
  MFI: 1
[16]
  MFI: 8.1
[17]
  MFI: 10.7
[18]
  MFI: 17.9
[19]
  MFI: 5
[20]
  MFI: 3.1
[21]
  MFI: 1.6
[22]
  MFI: 1
[23]
  MFI: 1
